Patent US20190091332A1 (published 2019)

T1: human LAG3-huFc (human, UniProt P18627 23-450, limits assumed)
T1 construct: also called human LAG3-Fc; huLAG3-huFc; not shown: human Fc (huFc)
T1 sequence: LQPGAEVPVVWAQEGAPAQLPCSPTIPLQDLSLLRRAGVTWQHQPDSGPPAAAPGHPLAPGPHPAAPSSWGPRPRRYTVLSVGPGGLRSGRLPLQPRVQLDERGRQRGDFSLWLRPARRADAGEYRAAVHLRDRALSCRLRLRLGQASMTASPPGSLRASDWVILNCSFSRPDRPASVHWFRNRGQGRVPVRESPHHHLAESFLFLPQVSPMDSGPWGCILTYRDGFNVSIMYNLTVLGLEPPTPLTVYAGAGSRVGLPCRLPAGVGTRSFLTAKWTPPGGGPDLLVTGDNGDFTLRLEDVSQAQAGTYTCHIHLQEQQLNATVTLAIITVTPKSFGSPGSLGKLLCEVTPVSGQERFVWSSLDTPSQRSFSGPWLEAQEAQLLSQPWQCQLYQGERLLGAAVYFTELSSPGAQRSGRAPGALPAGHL


Legend:
human LAG3-huFc [1] = biological target: T1, human LAG3-huFc; assay: flow cytometry competition: antibody pre-incubated with human LAG3-huFc, its binding to Daudi cells (MHC class II) read
Procedure: (§1) Mouse anti-human LAG3 clones were tested for their ability to block hLAG3 interaction with human MHC Class II. Daudi cells (ATCC #CCL-213) were used as a cell line positive for human MHC class II expression. Daudi cells were blocked with 10 ug/ml of goat IgG in HBSS and 2% BCS on ice for 30 minutes and 0.5×10⁶ cells/sample were aliquoted into a 96-well V-bottom plate and blocking buffer removed. […] Cells were pelleted by centrifugation at 1200 rpm and washed twice with HBSS/2% BCS. […] Cells were washed twice as described above, resuspended in HBSS/2% BCS and read on the FACSCalibur.

human LAG3-huFc [2] = biological target: T1, human LAG3-huFc; assay: as above; remark: listed apart in the source
Procedure: as §1

human LAG3-huFc [3] = biological target: T1, human LAG3-huFc; assay: flow cytometry competition: antibody pre-incubated with biotinylated human LAG3-huFc, its binding to Daudi cells (MHC class II) read with streptavidin-PE
Procedure: as §1, with “anti-human LAG3 and humanized anti-LAG3 clones were” for “anti-human LAG3 clones were”

Binder | IC50 (human LAG3-huFc [1]) | IC50 (human LAG3-huFc [2]) | IC50 (human LAG3-huFc [3])
LB148.19E8.G1.1A1 (antibody, V domains shown, also called Lag3 clone 19E8) VH: QIRLQQSGPELVKPGASVKISCKASGSSFTDYYINWVKQKPGQGLEWIGWIYPGSGNSIYNENFKAKATLTVDTSSSTAYMHLSSLTSEDTAVYFCAREADYDDALDYWGQGTSVTVSS VL: HILLTQSPAILSVSPGERVSFSCRASQSIGTSIHWYQQRTNGSPRLLIKYASESISGIPSRFSGSGSGTDFTLSINSVESEDIADYYCQQSNSWPTYTFGGGTKLEIK | 2.8 nM | 2.8 nM | 
Hu22D2 VH6/VL3 (Ab 5) (antibody, human IgG4 S228P, kappa, V domains shown, Humanized 22D2, IgG4 S228P/kappa; also called 45AGX light chain / 57AHH heavy chain IgG4 S228P) VH: QMQLVQSGPEVKKPGTSVKVSCKASGYTFTDYNVDWVRQARGQRLEWIGDINPNNGGTIYAQKFQERVTITVDKSTSTAYMELSSLRSEDTAVYYCARNYRWFGAMDHWGQGTTVTVSS VL: DIVMTQTPLSLSVTPGQPASISCKASQSLDYEGDSDMNWYLQKPGQPPQLLIYGASNLESGVPDRFSGSGSGTDFTLKISRVEAEDVGVYYCQQSTEDPRTFGGGTKVEIKR |  |  | 2.6 nM
Hu22D2 VH6/VL3 N55S (Ab 7) (antibody, human IgG4 S228P, kappa, V domains shown, Humanized 22D2, IgG4 S228P/kappa; also called 45AGX light chain / 21AHG heavy chain IgG4 S228P) VH: QMQLVQSGPEVKKPGTSVKVSCKASGYTFTDYNVDWVRQARGQRLEWIGDINPNSGGTIYAQKFQERVTITVDKSTSTAYMELSSLRSEDTAVYYCARNYRWFGAMDHWGQGTTVTVSS VL: DIVMTQTPLSLSVTPGQPASISCKASQSLDYEGDSDMNWYLQKPGQPPQLLIYGASNLESGVPDRFSGSGSGTDFTLKISRVEAEDVGVYYCQQSTEDPRTFGGGTKVEIKR |  |  | 2.1 nM
Hu22D2 VH6/VL3 N55Q (Ab 8) (antibody, human IgG4 S228P, kappa, V domains shown, Humanized 22D2, IgG4 S228P/kappa; also called 45AGX light chain / 80AHG heavy chain IgG4 S228P) VH: QMQLVQSGPEVKKPGTSVKVSCKASGYTFTDYNVDWVRQARGQRLEWIGDINPNQGGTIYAQKFQERVTITVDKSTSTAYMELSSLRSEDTAVYYCARNYRWFGAMDHWGQGTTVTVSS VL: DIVMTQTPLSLSVTPGQPASISCKASQSLDYEGDSDMNWYLQKPGQPPQLLIYGASNLESGVPDRFSGSGSGTDFTLKISRVEAEDVGVYYCQQSTEDPRTFGGGTKVEIKR |  |  | 2.5 nM
Hu22D2 VH6/VL3 N55D (Ab 6) (antibody, human IgG4 S228P, kappa, V domains shown, Humanized 22D2, IgG4 S228P/kappa; also called Hu2D2; 45AGX light chain / 73AHD heavy chain IgG4 S228P) VH: QMQLVQSGPEVKKPGTSVKVSCKASGYTFTDYNVDWVRQARGQRLEWIGDINPNDGGTIYAQKFQERVTITVDKSTSTAYMELSSLRSEDTAVYYCARNYRWFGAMDHWGQGTTVTVSS VL: DIVMTQTPLSLSVTPGQPASISCKASQSLDYEGDSDMNWYLQKPGQPPQLLIYGASNLESGVPDRFSGSGSGTDFTLKISRVEAEDVGVYYCQQSTEDPRTFGGGTKVEIKR |  |  | 2.4 nM
LB145.22D2.E1.1D1 (antibody, V domains shown, also called mouse anti-human LAG3 clone 22D2; Lag3 clone 22D2) VH: EVLLLQSGPELVKPGTSVKIPCKASGYTFTDYNVDWVKQRHGKGLEWIGDINPNNGGTIYSQKFKGKATLTVDKSSSTAFMELRSLTSEDTAVYFCARNYRWFGAMDHWGQGTSVTVSS VL: DIVLTQSPASLAVSPGQRATISCKASQSLDYEGDSDMNWYQQKPGQPPRLLISGASNLESGIPARFSGSGSGTDFTVNIHPVEEEDAATYYCQQSTEDPRTFGGGTKLEIK | 2.1 nM | 2.1 nM | 
22D2 Chimera ([LAG3_H] mAb (LB145.22D2.E1.D1 (VH0/VL0) Geneart) IgG4 S228P/kappa (PX)) (antibody, V domains shown, Chimeric antibody: 22D2 VH0/VL0 variable domains on human IgG4 S228P/kappa; also called Chimeric 22D2; Anti-hLAG3 clone 22D2 (chimeric antibody)) VH: EVLLLQSGPELVKPGTSVKIPCKASGYTFTDYNVDWVKQRHGKGLEWIGDINPNNGGTIYSQKFKGKATLTVDKSSSTAFMELRSLTSEDTAVYFCARNYRWFGAMDHWGQGTSVTVSS VL: DIVLTQSPASLAVSPGQRATISCKASQSLDYEGDSDMNWYQQKPGQPPRLLISGASNLESGIPARFSGSGSGTDFTVNIHPVEEEDAATYYCQQSTEDPRTFGGGTKLEIK |  |  | 2.5 nM
LB148.11C9.1C1 (antibody, V domains shown, also called Lag3 clone 11C9; mouse x [LAG3_H] mAb (LB148.11C9.1C1) IgG1/kappa (HY)) VH: QVQLQQPGAELVMPGASAKMSCKASGYTLTDYWMHWVKQRPGQGLEWIGAIDISDSYSSYNQKFKGKATLTVDESSSTAYMQLTSLTSEDSAVYYCARSPFYNSRGGNYFDYWGQGTTLTVSS VL: DIQMTQTTSSLSASLGDRVTISCRASQDISNYLNWYQQKPDGTVKLLIYYTSRLHSGVPSRFSGSGSGTDYSLTISNLEQEDIATYFCQQGDTLPPWTFGGGTKLEIK | 2 nM | 2 nM | 
LB148.4A10.1H1 (antibody, V domains shown, also called Lag3 clone 4A10; mouse x [LAG3_H] mAb (LB148.4A10.1H1) IgG2a/kappa (HY)) VH: EVQLLQSGAELVRSGASVKLSCTASGFNIEDYYMHWMKQRPEQGLEWIGWIDPVNGDTEYAPKFQGKATMTADTSSNTAYLHLNSLTSEDTAVYYCNFYDGYLFAFWGQGTLVTVSA VL: DIVLTQAAPSVPVTPGESVSISCRSSKSLLHSDGNTYLYWLLQRPGQSPQLLIYRMSNLASGVPDRFSGSGSGTVFTLRISRLEAEDVGIYYCMQHLEYPFTFGGGTKLEIK | 1.9 nM | 1.9 nM | 
